Values of other authors in paper PMC4604100, “Melanocortin agonists stimulate lipolysis in human adipose tissue explants but not in adipocytes” (BMC Research Notes, 2015).

Test system: MC1R
Settings: ref [24]
Text: It is still rather unclear as to what extent peripherally expressed MCRs regulate metabolism. […] In addition, POMC expression has been identified in peripheral tissues such as the skin, testes, ovaries, placenta, adrenal glands, gastrointestinal tract, immune cells and tumors. The peripheral melanocortin system was initially examined f ...

B1: Agouti/ASIP: agouti/agouti signaling protein, endogenous melanocortin receptor antagonist (protein, UniProt P42127 23-132, looked up)
Agouti-signaling protein: HLPPEEKLRDDRSLRSNSSVNLLDVPSVSIVALNKKSKQIGRKAAEKKRSSKKEASMKKVVRPRTPLSAPCVATRNSCKPPAPACCDPCASCQCRFFRSACSCRVLSLNC
antagonism on MC1R (in words): high affinity antagonist
